This is an account of results in US20250215104A1 (published 2025).

As usually defined, the Kd is the concentration at which binding is half-saturated.

The experiment has as its target human suPAR (hsuPAR) recombinant protein (human, UniProt Q03405 23-303). The experiment is described as follows: BLI; avid. A general note: Biolayer interferometry detects binding as a change in optical thickness at a sensor tip.

Sequence of human suPAR (hsuPAR) recombinant protein (Q03405 23-303): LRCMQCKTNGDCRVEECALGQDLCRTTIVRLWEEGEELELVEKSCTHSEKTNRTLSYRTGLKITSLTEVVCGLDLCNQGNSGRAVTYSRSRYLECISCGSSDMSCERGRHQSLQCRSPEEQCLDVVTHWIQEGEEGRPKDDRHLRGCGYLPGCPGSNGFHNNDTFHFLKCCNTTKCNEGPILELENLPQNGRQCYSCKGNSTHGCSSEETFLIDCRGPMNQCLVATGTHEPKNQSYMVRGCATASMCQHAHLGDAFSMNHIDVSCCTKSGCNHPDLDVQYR

B1: WAb0014 (antibody, V domains shown)
VH: QVQLVQSGAEVKKPGASVKVSCKASGYTFTNYYMHWVRQAPGQGLEWMGWIDHESGSTIYAQKFQGRVTMTRDTSTSTVYMELSSLRSEDTAVYYCARGYDVDWFVYWGQGTLVTVSS
VL: DIQMTQSPSSLSASVGDRVTITCSARQSVSYMYWYQQKPGKAPKLLIYRTSNLASGVPSRFSGSGSGTDFTLTISSLQPEDFATYYCQQYHSYPPTFGGGTKVEIKR
For the molecule B1, the Kd was below 1 pM.
